Laboratory results reported in US20250188179A1 (ADAGENE PTE, published 2025).

Experiments:
[1] = molecular target: T1, hCD137 (antigen of the ELISA and FACS assays of Example 2) (human, UniProt Q07011 24-186, limits assumed); assay: ELISA on hCD137, absorbance at 450 nm; masked antibody without MMP9 treatment
T1 construct: also called human CD137

[2] = molecular target: T2, full-length human CD137 with C-terminal 3xMyc tag displayed on yeast cells (human, UniProt Q07011 24-255); assay: KD divided by KD of parental antibody (TY21242 or TY23310); FACS on yeast hCD137; data batch 4
T2 construct: whole, on cells; not used; also called hCD137; not shown: C-terminal 3xMyc tag

[3] = molecular target: T2, full-length human CD137 with C-terminal …; assay: FACS titration on yeast displaying full-length hCD137-3xMyc, no protease; data batch 4
[4] = molecular target: T1, hCD137 (antigen of the ELISA and FACS …); assay: FACS-based assay on hCD137
[5] = molecular target: T1, hCD137 (antigen of the ELISA and FACS …); assay: FACS KD relative to parental antibody TY24122
[6] = molecular target: T3, His-tagged recombinant human FcγRIIa (human, UniProt P12318 36-218, limits assumed); assay: BLI (Fortebio), His-tagged FcγR captured on anti-Penta-His sensor, antibody in solution, steady state analysis
T3 construct: His-tagged; also called hFcγRIIa
T3 sequence (looked up): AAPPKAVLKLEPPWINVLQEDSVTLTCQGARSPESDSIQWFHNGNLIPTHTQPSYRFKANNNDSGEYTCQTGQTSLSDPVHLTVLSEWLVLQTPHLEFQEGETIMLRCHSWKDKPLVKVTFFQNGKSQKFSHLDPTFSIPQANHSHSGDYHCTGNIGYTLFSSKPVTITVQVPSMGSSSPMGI

[7] = molecular target: T4, His-tagged recombinant human FcγRIIb (human, UniProt P31994 46-217, limits assumed); assay: as above
T4 construct: His-tagged; also called hFcγRIIb
T4 sequence (looked up): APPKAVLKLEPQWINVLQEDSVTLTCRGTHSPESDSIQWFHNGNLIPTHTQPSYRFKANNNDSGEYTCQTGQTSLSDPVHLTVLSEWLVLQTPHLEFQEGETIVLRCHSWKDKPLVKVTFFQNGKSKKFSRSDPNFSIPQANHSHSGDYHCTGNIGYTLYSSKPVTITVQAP

[8] = molecular target: T1, hCD137 (antigen of the ELISA and FACS …); assay: ELISA EC50 relative to parental antibody TY24122
[9] = molecular target: T1, hCD137 (antigen of the ELISA and FACS …); assay: ELISA on hCD137

B1: TY25366 (antibody, human IgG4 S228P, kappa)
heavy: EVQLVESGGGLVQPGGSLRLSCAASGFSLSTGGVGVGWIRQAPGKGLEWLALIDWADDKYYSPSLKSRLTISRDNSKNTLYLQLNSLRAEDTAVYYCARGGSDTVIGDWFAYWGQGTLVTVSSASTKGPSVFPLAPCSRSTSESTAALGCLVKDYFPEPVTVSWNSGALTSGVHTFPAVLQSSGLYSLSSVVTVPSSSLGTKTYTCNVDHKPSNTKVDKRVESKYGPPCPPCPAPEFLGGPSVFLFPPKPKDTLMISRTPEVTCVVVDVEQEDPEVQFNWYVDGVEVHNAKTKPREEQFNSTYRVVSVLTVLHQDWLNGKEYKCKVSNKGFPSSIEKTISKAKGQPREPQVYTLPPSQEEMTKNQVSLTCLVKGFYPSDIAVEWESNGQPENNYKTTPPVLDSDGSFFLYSRLTVDKSRWQEGNVFSCSVMHEALHNHYTQKSLSLSLGK
light: not shown
notes: also called untreated TY25366
Q: For B1, which “EC50 (read off the curve)” value [1] is on record?
A: ~10 nM

Q: What about the Masking efficiency [2] of the same binder?
A: 324 fold

Q: And the Kd [3]?
A: 64.6 nM

B2: TY24122 (antibody, human IgG4 S228P, kappa)
heavy: EVQLVESGGGLVQPGGSLRLSCAASGFSLSTGGVGVGWIRQAPGKGLEWLALIDWADDKYYSPSLKSRLTISRDNSKNTLYLQLNSLRAEDTAVYYCARGGSDTVIGDWFAYWGQGTLVTVSSASTKGPSVFPLAPCSRSTSESTAALGCLVKDYFPEPVTVSWNSGALTSGVHTFPAVLQSSGLYSLSSVVTVPSSSLGTKTYTCNVDHKPSNTKVDKRVESKYGPPCPPCPAPEFLGGPSVFLFPPKPKDTLMISRTPEVTCVVVDVEQEDPEVQFNWYVDGVEVHNAKTKPREEQFNSTYRVVSVLTVLHQDWLNGKEYKCKVSNKGFPSSIEKTISKAKGQPREPQVYTLPPSQEEMTKNQVSLTCLVKGFYPSDIAVEWESNGQPENNYKTTPPVLDSDGSFFLYSRLTVDKSRWQEGNVFSCSVMHEALHNHYTQKSLSLSLGK
light: not shown
Q: Which Kd [4] does the source give for B2 here?
A: 0.141 nM

Q: And the Masking efficiency [5]?
A: 1 fold

Q: And the Kd [6]?
A: 5.85 nM

Q: What about the Kd [7] of the same binder?
A: 5.06 nM

Q: And the Masking efficiency [8]?
A: 1 fold

Q: What about the EC50 [9] of the same binder?
A: 0.31 nM
